± gives the uncertainty stated by the source.
test: amyloid nucleation score (Sup35N fusion, yeast selection) (log enrichment); library NNK1; higher = more nucleation; inactive = no reads after selection
Summary of the method: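 The nucleation score equals the log enrichment of output over input reads from DiMSum, centred on the mode score of non-aggregating sequences. It was computed only for sequences with 100 or more input reads. The reads came from Illumina sequencing of plasmid inserts from psi-negative yeast expressing Sup35N fused to peptides of 20 random codons, induced with 100 μM copper sulfate for 24 hours and grown 7 days at 30°C without adenine and uracil.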

Substance | amyloid nucleation score
IICLVNMDLCKSR | 3.9 ± 0.16
IIGSIGYVKVSCDQAVRFQL | 5.01 ± 0.076
IIINGVL | 0.029 ± 0.62
IILCNRPMSYLRYNGARFLA | 0.948 ± 0.36
IILGL | 0.006 ± 0.73
IIRKPGLTRTCHTVLTAASE | 0.511 ± 0.91
IIRRGSRSFYIFMVTFKRRN | 0.996 ± 0.52
IISMLFAFIGQSIIVQVVRC | 0.316 ± 0.26
IISVMTIARGNPVCTHIKYG | 0.169 ± 0.29
IIVGEFENLYNSAINVK | inactive
IKEFLKACNHHEPMPGNLMR | -0.005 ± 0.54
IKHFGISTR | 0.17 ± 0.79
IKISHACATMRQSGGFYVLK | -0.511 ± 0.39
IKLFARGGI | 0.39 ± 0.59
IKMDFTFICIRVRGV | 0.343 ± 1.4
IKSHNMYYGRRRGVFLGPDR | -0.075 ± 0.44
IKTMISQY | -0.406 ± 0.25
IKWLGLTSHRWIYTSGLRIL | inactive
IKWSGVVASGGDNPLTDHSR | -0.05 ± 0.71
IKYFVLAWTSDPLTYVTVTS | 0.953 ± 0.46
IKYINDITFLVLPYWFI | 3.6 ± 0.072
ILADIVDATWNFKSSISFLG | 1.74 ± 0.16

Substance | amyloid nucleation score
ILATMQFLCQMGSERNQARA | 0.454 ± 0.26
ILAWAMGI | 0.777 ± 0.78
ILCLKTDGLGDESRGVSEAG | 0.27 ± 0.75
ILEFDDKKVLNLVEGKLLGA | -0.383 ± 1.7
ILELYYYASRFLN | 0.45 ± 0.57
ILFCYLYFMLNNFT | 1.07 ± 0.14
ILIAKCSLPCYMKRGNAPCL | 1.37 ± 0.59
ILLMFYRCSKDILLIRSTDF | 0.059 ± 0.27
ILLYVICQVVTTV | 1.64 ± 0.34
ILPLLLMWFTYCDDV | 2.23 ± 0.6
ILRSGNVCYHNTVRWVLSYR | 0.225 ± 0.21
ILSRVCVRGCIHLPSRMCRS | inactive
ILSYVTVDPAKVNYIFREWF | -1.03 ± 0.76
ILVYERTYFRNLQWIIRWFS | -0.356 ± 0.22
ILYNLGTWFRLC | -0.496 ± 0.61
IMPDNDWKSCILIFSRSILF | 2.59 ± 0.15
IMRRVLAFSCN | -0.538 ± 0.34
IMYSQNEGDMYESSFV | -0.551 ± 0.35
INDESFWDCIVPNRMKGFSG | 0.325 ± 0.42
INELNTLLGI | 0.498 ± 0.97
INFVLMIRMIVSFMNIGRIG | -0.527 ± 1.6
INHLKGVSRYSVPVLLGFIA | 0.124 ± 0.45

Substance | amyloid nucleation score
INLCAFGLPLVKVLHWLLYL | inactive
INLGLVGSRFGSNMERLYGG | 0.503 ± 1.1
INNSDSCVMLMMNRVFCHGG | 6.085 ± 0.048
INVPIWGNLQDWLVI | -0.924 ± 0.52
INYNWCQTRG | -0.867 ± 0.39
INYTTWHYASCFRFT | 2.82 ± 0.14
IPNGNVSSSLSVGIMPVAFR | 4.36 ± 0.092
IPPNSWMKSRNCTKLTARVY | -0.312 ± 1.4
IPTLRSPVNRWPRITMKVWL | -0.161 ± 0.62
IPVILSSSNYSDSKPGL | 0.964 ± 0.6
IQALDLDTVFDCC | 6.45 ± 0.088
IQQTLPQRYMYNEIRPCSSL | 0.502 ± 0.19
IQYDSFNVRFDIATAIDYFA | -0.12 ± 0.67
IRAQGHNYWALMRVAEWVVG | 1.75 ± 0.42
IRCDKLISNSNMLGDKLTL | inactive
IRDMFVSGSQFFLKHMLSRG | 0.436 ± 0.78
IRDNDDLLWMEGRSWKWSRR | 0.27 ± 0.29
IRGNSKGMGQREFISPFPAR | -1 ± 0.35
IRGVKSYLSLITLFSKTHLV | -0.833 ± 0.39
IRGYGAWGQWGSYRFRESES | 1.6 ± 0.17
IRKHLDPGPSYRSSYLRGW | inactive
IRLNSFTIESKRMYGRDSDV | 3.38 ± 0.12

Substance | amyloid nucleation score
IRLRMWDHRWSTKGGSHTFL | -1.36 ± 0.95
IRNSEKLNRGCGCGVMHVSV | 0.239 ± 0.49
IRQTVVLGL | -0.732 ± 0.7
IRVFLLSCQTEKLGSVGVRS | -0.007 ± 0.41
IRVTAEICYLLKHTVMGRMR | 0.523 ± 0.34
ISALRFSTLRSCGAGPGVAS | -0.859 ± 1.2
ISCYVRISIILFLEKMVLRA | 0.033 ± 0.24
ISDCRFILMYSYGHLCAGVR | 0.513 ± 0.45
ISEMVEWSISPTLGETVTCM | 0.363 ± 0.49
ISICDVYLWVHMRYSL | 0.584 ± 0.21
ISLTDRVSGNRAVYHCSYAS | -1.01 ± 1.4
ISNGFQSV | -0.027 ± 0.81
ISRWMSVDLCLPKLATGTVS | -0.083 ± 0.4
ISSTGKIFGFFPLCSYMN | 0.041 ± 0.47
ISWFRCLEVWPSYGIPDWKN | -0.467 ± 0.28
ISWMLLVLSFSMTVLNIRWN | -0.199 ± 0.33
ISYESWVLRGIARGFQGLVG | -1.09 ± 0.7
ISYSYVTIIA | -0.181 ± 0.27
ITAFKRAKRSAGCW | -0.034 ± 0.25
ITFKLNMCPILWIPCVACSN | 6.57 ± 0.047

— the supplement of paper PMC12042874
